Patent US11419945B2, “Antigen binding proteins” (Glaxo Group Limited, priority 2011, dated 2022)

Experiments:
TACI-Fc = assay: Biacore cross reactivity experiment, TACI-Fc; format: binding; conditions: antibody captured on protein A
Procedure: CA8 chimera antibody was injected and captured on protein A. (A protein A derivitised sensorchip was used). Residual protein A binding was blocked with an injection of a high concentration of human IgG solution. BCMA-Fc, TACI-Fc or BAFF-R-Fc solutions were then tested for binding to the antibody. The 3 proteins were injected in sequence and binding events were measured. The surface was regenerated between injection of each protein.
Sensorgrams were analysed in the Biaevaluation program. Double reference subtraction was done to remove instrument noise and any non-specific binding from the sensorgram curves.

Human in house BCMA = molecular target: T1, Human in house BCMA (Homo sapiens, UniProt Q02223); assay: ProteOn analysis of CA8 chimeric and humanised constructs, human in house BCMA; format: binding; conditions: ProteOn, 25° C.; for ka: in M-1s-1 (unit assumed); for kd: in s-1 (unit assumed)
T1 construct: CD33 signal peptide (N); TEV site (internal); Fc (C); made in house
T1 sequence (Q02223 with tags, fused parts or gaps limits assumed): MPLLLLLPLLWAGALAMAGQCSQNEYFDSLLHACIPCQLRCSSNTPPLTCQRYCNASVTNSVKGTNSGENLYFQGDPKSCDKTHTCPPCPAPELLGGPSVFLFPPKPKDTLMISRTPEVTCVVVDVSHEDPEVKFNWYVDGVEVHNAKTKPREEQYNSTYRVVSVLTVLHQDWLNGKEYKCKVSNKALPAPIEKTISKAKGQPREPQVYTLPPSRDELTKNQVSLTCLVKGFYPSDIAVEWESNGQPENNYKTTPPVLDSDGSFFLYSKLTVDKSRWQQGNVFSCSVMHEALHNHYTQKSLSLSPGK
Procedure: (§1) The initial screen of CA8 chimeric and humanised variants was carried out on the ProteOn XPR36 (Biorad). The method was as follows; Protein A was immobilised on a GLC chip (Biorad, Cat No: 176-5011) by primary amine coupling, CA8 variants were then captured on this surface and recombinant human BCMA (in house or commercial US Biological, B0410) materials (run 2 only)) passed over at 256, 64, 16, 4, 1 nM with a 0 nM injection (i.e. buffer alone) used to double reference the binding curves, the buffer used is the HBS-EP buffer. 50 mM NaOH was used to regenerate the capture surface. The data was fitted to the 1:1 model using the analysis software inherent to the ProteOn XPR36. Run 1 corresponds to the first screen of humanised CA8 variants (JO to J5 series) and run 2 to the second screen of humanised CA8 variants (J5 to J9 series). Both runs were carried out at 25° C.

Human commercial BCMA [1] = molecular target: T2, Human commercial BCMA (Homo sapiens, UniProt Q02223); assay: ProteOn analysis of CA8 chimeric and humanised constructs, commercial human BCMA; format: binding; conditions: Run 2, commercial human BCMA, 25° C.
T2 construct: purchased US Biological B0410
T2 sequence (Q02223 1-184): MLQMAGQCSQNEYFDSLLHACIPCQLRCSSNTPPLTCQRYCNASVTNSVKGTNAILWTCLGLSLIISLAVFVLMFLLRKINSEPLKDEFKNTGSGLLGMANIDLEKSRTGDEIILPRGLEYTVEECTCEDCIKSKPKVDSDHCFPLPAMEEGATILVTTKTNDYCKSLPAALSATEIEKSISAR
Procedure: as §1

Human commercial BCMA [2] = molecular target: T2, Human commercial BCMA; assay: BIAcore analysis J7 to J9 series, human commercial BCMA; format: binding; conditions: 37° C.
Procedure: Protein A was immobilised on a CMS chip (GE Healthcare, Cat No: BR-1005-30) by primary amine coupling and this surface was then used to capture the antibody molecules. Recombinant human BCMA (US Biological, B0410) was used as analyte at 256 nM, 64 nM, 16 nM, 4 nM and 1 nM. Regeneration of the capture surface was carried out using 50 mM NaOH. All binding curves were double referenced with a buffer injection (i.e. 0 nM) and the data was fitted to the using the 1:1 model inherent to T100 evaluation software. The run was carried out at 37° C., using HBS-EP as the running buffer.

Human BCMA-Fc = molecular target: T3, Human BCMA-Fc (Homo sapiens, UniProt Q02223); assay: ELISA binding to recombinant human BCMA-Fc; conditions: 5 ug/ml to 0.1 ug/ml antibody
T3 construct: CD33 signal peptide (N); TEV site (internal)
T3 sequence (Q02223 with tags, fused parts or gaps): as the sequence (Q02223 with tags, fused parts or gaps limits assumed) above
Procedure: (§2) Chimeric CA8 antibodies were tested for binding to human BCMA and cyno BCMA expressed as Fc fusions. Human BCMA-Fc and cyno BCMA-Fc were coated to ELISA plates and the plates were blocked using BSA to reduce non specific binding. CA8 chimeric antibodies were added in a concentration range from 5 ug/ml to 0.1 ug/ml to the human and cyno BCMA coated ELISA plates. Any bound human chimeric CA8 antibody was detected using anti-human IgG HRP conjugated secondary antibody as appropriate. HRP substrate (TMB) was added to develop the ELISA.

Human commercial BCMA [3] = molecular target: T2, Human commercial BCMA; assay: BIAcore analysis of J6M0 and J9M0, human commercial BCMA; format: binding
Procedure: Protein A was immobilised on a CMS chip (GE Healthcare, Cat No: BR-1005-30) by primary amine coupling and this surface was then used to capture the antibody molecules. Recombinant human BCMA (US Biological, B0410) was used as analyte at 256 nM, 64 nM, 16 nM, 4 nM and 1 nM. Regeneration of the capture surface was carried out using 50 mM NaOH. All binding curves were double referenced with a buffer injection (i.e. 0 nM) the data was fitted to the using the 1:1 model inherent to T100 evaluation software. The run was carried out at 25° C. and 37° C. for experiment 1 and only 37° C. for experiment 2 using HBS-EP as the running buffer.

[4] = test system: multiple myeloma cell lines H929, OPM-2, JJN-3 and U266; assay: FACS binding curve of chimeric CA8 to multiple myeloma cells; set-up: species or system human; conditions: varying concentrations, 20 minutes at RT
Procedure: A panel of multiple myeloma cell lines were used to determine the binding of chimeric CA8. […] Cells were then washed with FACS buffer (PBS+0.5% BSA+0.1% sodium azide) to remove unbound antibody. Cells were incubated with a secondary PE labelled anti-human IgG antibody for 15 minutes at RT and then washed with FACS buffer to remove unbound antibody. Cells were analysed by FACS and mean fluorescence intensity (MFI) values measured to determine binding.

H929 cells = assay: FACS binding of humanised CA8 to H929 cells; set-up: species or system human; conditions: varying concentrations, 20 minutes at RT
Procedure: ARH77-hBCMA 10B5 BCMA expressing transfectant cells or H929 cells were stained with either chimeric CA8 or humanised variants of CA8 designated J6M0, J6M1, J6M2, J9M0, J9M1, J9M2 at varying concentrations for 20 minutes at RT. Cells were then washed with FACS buffer (PBS+0.5% BSA+0.1% sodium azide) to remove unbound antibody. Cells were incubated with a secondary PE labelled anti-human IgG antibody for 15 minutes at RT and then washed with FACS buffer to remove unbound antibody. Cells were analysed by FACS and mean fluorescence intensity (MFI) values measured to determine binding.

cyno BCMA-Fc = assay: ELISA binding to recombinant cyno BCMA-Fc; conditions: 5 ug/ml to 0.1 ug/ml antibody
cyno BCMA-Fc, sequence (as listed by the source): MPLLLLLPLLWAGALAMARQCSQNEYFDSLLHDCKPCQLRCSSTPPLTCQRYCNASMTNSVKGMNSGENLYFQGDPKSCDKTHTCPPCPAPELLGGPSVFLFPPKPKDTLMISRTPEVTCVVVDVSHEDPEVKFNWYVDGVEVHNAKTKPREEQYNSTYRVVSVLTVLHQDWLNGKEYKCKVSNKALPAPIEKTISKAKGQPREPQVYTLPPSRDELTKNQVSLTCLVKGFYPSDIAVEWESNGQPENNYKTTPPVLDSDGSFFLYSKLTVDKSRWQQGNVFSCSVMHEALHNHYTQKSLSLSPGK
Procedure: as §2

[5] = listed as human chimeric CA8 antibodies

B1: CA8 Chimera: chimeric anti-BCMA antibody: murine CA8 VH (SEQ ID NO:7) and VL (SEQ ID NO:9) on human γ1 and kappa constant regions (antibody, V domains shown)
VH: EVQLQQSGAVLARPGASVKMSCKGSGYTFTNYWMHWVKQRPGQGLEWIGATYRGHSDTYYNQKFKGKAKLTAVTSTSTAYMELSSLTNEDSAVYYCTRGAIYNGYDVLDNWGQGTLVTVSS
VL: DIQLTQTTSSLSASLGDRVTISCSASQDISNYLNWYQQKPDGTVELVIYYTSNLHSGVPSRFSGSGSGTDYSLTIGYLEPEDVATYYCQQYRKLPWTFGGGSKLEIKR
modifications: human IgG1 and kappa constant regions; mus musculus
B1 was tested, and the “binding to TACI-Fc” value (TACI-Fc; listed as CA8) was “not to TACI”, the “binding to TACI-Fc” value (TACI-Fc; listed as CA8 chimera antibody) was “does not bind” and the ka (Human in house BCMA; Run 1, Human in house BCMA) was 2.41E+05. The kd (Human in house BCMA; Run 1, Human in house BCMA) was 1.25E−04, the ka (Human in house BCMA; Run 2, Human in house BCMA) was 2.51E+05 and the kd (Human in house BCMA; Run 2, Human in house BCMA) was 1.03E−04. For the same molecule, the ka (Human commercial BCMA [1]; in M-1s-1 (unit assumed)) was 7.05E+05, the kd (Human commercial BCMA [1]; in s-1 (unit assumed)) was 9.79E−05 and the ka (Human commercial BCMA [2]; in M-1s-1 (unit assumed)) was 3.27E+07. For the same molecule, the kd (Human commercial BCMA [2]; in s-1 (unit assumed)) was 1.18E−03, the “binding to recombinant human BCMA (ELISA)” value (Human BCMA-Fc; listed as Chimeric CA8) was “binds to recombinant human and cyno BCMA” and the “binding to recombinant human BCMA (ELISA)” value (Human BCMA-Fc; [5]) was “bind to human and cyno BCMA proteins equally”. For the same molecule, the ka (Human commercial BCMA [3]; 25° C., Experiment 1, in M-1s-1 (unit assumed)) was 1.88E+06, the kd (Human commercial BCMA [3]; 25° C., Experiment 1, in s-1 (unit assumed)) was 2.63E−04 and the ka (Human commercial BCMA [3]; 37° C., Experiment 1, in M-1s-1 (unit assumed)) was 1.72E+07. The kd (Human commercial BCMA [3]; 37° C., Experiment 1, in s-1 (unit assumed)) was 8.72E−04, the ka (Human commercial BCMA [3]; 37° C., Experiment 2, in M-1s-1 (unit assumed)) was 1.88E+07 and the kd (Human commercial BCMA [3]; 37° C., Experiment 2, in s-1 (unit assumed)) was 1.04E−03. For the same molecule, the “binding to multiple myeloma cell lines by FACS (MFI)” value [4] was “bound to multiple myeloma cell lines H929, OPM-2, JJN-3 & U266 in a dose dependent manner”, the “dose dependent binding to H929 cells by FACS (MFI)” value (H929 cells) was “bound” and the “binding to recombinant cyno BCMA (ELISA)” value (cyno BCMA-Fc; listed as Chimeric CA8) was “binds to recombinant human and cyno BCMA”. The “binding to recombinant cyno BCMA (ELISA)” value (cyno BCMA-Fc; [5]) was “bind to human and cyno BCMA proteins equally”.
